Test results taken from patent publication US20200057058A1 (MIT, published 2020).

Assays:
streptavidin [1] = biological target: T1, streptavidin (UniProt P22629 37-163, limits assumed); assay: fluorescent binding assay, labeled SA in 50% urine on thin film, 4 h exposure
T1 construct: It was used without a stated label in the sandwich assays; also called SA

streptavidin [2] = biological target: T1, streptavidin; assay: sandwich assay: SA in 50% urine, biotin-HRP/TMB detection
Experimental: (§1) Each well was submerged in 1 mL of 1% BSA in Milli-Q water, and the 12-well plate was incubated at 37° C. for 30 minutes. The wells were rinsed twice by adding 2 mL of Milli-Q water and gently shaking the well plate at 70 rpm for 5 minutes. 1 mL of streptavidin diluted in PBS, urine, or blood serum (prepared as described in the Fluorescent Assays section) containing 0.1% BSA was then added to each well, and the well plate was shaken at 70 rpm for 4 hours at room temperature. Wells were rinsed twice with 2 mL of Milli-Q water then twice with 2 mL of 0.1% BSA in Milli-Q water by shaking at 70 rpm for 5 minutes. After rinsing, wells were submerged in 1 mL of 200 ng/mL biotin-HRP in Milli-Q water containing 0.1% BSA, and the well plate was shaken at 70 rpm for 1 hour at room temperature. Wells were then rinsed with water and 0.1% BSA as described previously. 1 mL of solution from a Pierce TMB substrate kit (Thermo Fisher Scientific) was added to each well, and the well plate was shaken vigorously at 125 rpm for 15 minutes at room temperature. 1 mL of 2M H2SO4 was added to each well, and the absorbance at 450 nm was read using a Tecan Infinite M200 PRO plate reader.
(§2) The general procedure for this proof-of-concept experiment is diagrammed in FIG. 28. Films were first exposed to SA solutions and rinsed to remove unbound analyte. Taking advantage of the strong interaction between SA and biotin, thin films were then submerged in a solution of biotinylated horseradish peroxidase (biotin-HRP). Bound SA was detected colorimetrically through the HRP-mediated oxidation of 3,3′,5,5′-tetramethylbenzidine (TMB). Attempts to perform this assay using mSA2 as the analyte were unsuccessful, even when run on an rcSso7d.SA monolayer.

[3] = biological target: monomeric streptavidin variant mSA2; assay: fluorescent binding curve, labeled mSA2 in PBS, 4 h exposure
Experimental: (§3) The binding function of rcSso7d.SA oligomer-PNIPAM thin films was measured using fluorescently-labeled monomeric streptavidin (mSA2) and fluorescently-labeled streptavidin (SA). Details for the expression, purification, and fluorescent labeling of mSA2 are provided below. Samples were prepared by serial dilution of SA or mSA2 in PBS (pH 7.4), human urine (diluted to 50% v/v in PBS, pH 7.4), or blood serum (obtained as the supernatant by centrifuging whole blood at 1500×g for 10 minutes, then diluted to 50% v/v in PBS, pH 7.4). 0.5 μL drops of solutions containing serially diluted fluorescent mSA2 and fluorescent SA samples in PBS (pH 7.4) were gently applied to the surface of each bioconjugate thin film. […] Fluorescence microscopy images were acquired at 4× magnification using a Cy5 filter set and exposure time of 5000 ms on an Olympus IX-81 inverted fluorescence microscope with an AxioCam HRC CCD camera. Fluorescent intensity was calculated using ImageJ software⁶⁷ by determining the average fluorescent signal in a rectangular area of the fluorescent image free of defects and occupying no less than half of the full sample application area.
(§4) To evaluate how the apparent size-based diffusion properties translated to biosensing capabilities, binding curves were measured using SA and mSA2 solutions in buffer. […]

streptavidin [4] = biological target: T1, streptavidin; assay: fluorescent binding curve, labeled SA in PBS, 4 h exposure; quadratic fit
streptavidin [5] = biological target: T1, streptavidin; assay: fluorescent binding curve, labeled SA in PBS, 4 h exposure
Experimental: as §3, §4

[6] = biological target: monomeric streptavidin variant mSA2; assay: fluorescent binding curve, labeled mSA2 in 50% blood serum, 4 h; quadratic fit
streptavidin [7] = biological target: T1, streptavidin; assay: apparent Kd (Kd,app); fluorescent binding curve, labeled SA in PBS, 4 h exposure; quadratic fit
streptavidin [8] = biological target: T1, streptavidin; assay: fluorescent binding assay, labeled SA in 50% blood serum on thin film, 4 h exposure
streptavidin [9] = biological target: T1, streptavidin; assay: sandwich assay, SA in 50% blood serum, detection with biotin-HRP and TMB
Experimental: as §1, §2

[10] = biological target: monomeric streptavidin variant mSA2; assay: apparent Kd (Kd,app); fluorescent binding curve, labeled mSA2 in 50% blood serum, 4 h; quadratic fit
[11] = biological target: monomeric streptavidin variant mSA2; assay: fluorescent binding curve, labeled mSA2 in PBS, 4 h exposure; quadratic fit
Experimental: as §3, with “film. Films were incubated in a sealed chamber saturated with water vapor at room temperature to prevent to prevent drying of the applied fluorescent samples.” for “film.”
(§5) To evaluate how the apparent size-based diffusion properties translated to biosensing capabilities, binding curves were measured using SA and mSA2 solutions in buffer. Binding curves were fit with a quadratic model that is a function of three parameters: the average MFI per binding event a, the total concentration of binding sites [P]T, and the apparent dissociation constant K_{d,app} describing the binding equilibrium between analyte and binding sites within the thin film.

streptavidin [12] = biological target: T1, streptavidin; assay: apparent Kd (Kd,app); fluorescent binding curve, labeled SA in 50% urine, 4 h; quadratic fit
[13] = biological target: monomeric streptavidin variant mSA2; assay: apparent Kd (Kd,app); fluorescent binding curve, labeled mSA2 in PBS, 0.5 h exposure; quadratic fit
streptavidin [14] = biological target: T1, streptavidin; assay: fluorescent binding curve, labeled SA in 50% urine, 4 h; quadratic fit
[15] = biological target: monomeric streptavidin variant mSA2; assay: fluorescent binding curves, labeled mSA2 in 50% urine or 50% blood serum, 4 h
[16] = biological target: monomeric streptavidin variant mSA2; assay: fluorescent binding curve, labeled mSA2 in 50% urine, 4 h; quadratic fit
streptavidin [17] = biological target: T1, streptavidin; assay: apparent Kd (Kd,app); fluorescent binding curve, labeled SA in PBS, 0.5 h exposure; quadratic fit
[18] = biological target: monomeric streptavidin variant mSA2; assay: apparent Kd (Kd,app); fluorescent binding curve, labeled mSA2 in 50% urine, 4 h; quadratic fit
streptavidin [19] = biological target: T1, streptavidin; assay: apparent Kd (Kd,app); fluorescent binding curve, labeled SA in 50% blood serum, 4 h; quadratic fit
[20] = biological target: monomeric streptavidin variant mSA2; assay: fluorescent binding assay, labeled mSA2 in 50% blood serum on thin film, 4 h exposure
Experimental: as §3, with “film. Films were incubated in a sealed chamber saturated with water vapor at room temperature to prevent to prevent drying of the applied fluorescent samples.” for “film.”
as §5

streptavidin [21] = biological target: T1, streptavidin; assay: fluorescent binding curve, labeled SA in PBS, 30 min exposure
Experimental: as §3, §4

streptavidin [22] = biological target: T1, streptavidin; assay: sandwich assay: SA in 50% blood serum, biotin-HRP/TMB detection
Experimental: as §1, §2

[23] = biological target: monomeric streptavidin variant mSA2; assay: apparent Kd (Kd,app); fluorescent binding curve, labeled mSA2 in PBS, 4 h exposure; quadratic fit
Experimental: as §3, with “film. Films were incubated in a sealed chamber saturated with water vapor at room temperature to prevent to prevent drying of the applied fluorescent samples.” for “film.”
as §5

streptavidin [24] = biological target: T1, streptavidin; assay: fluorescent binding curve, labeled SA in 50% blood serum, 4 h; quadratic fit
[25] = biological target: monomeric streptavidin variant mSA2; assay: fluorescent binding assay, labeled mSA2 in 50% urine on thin film, 4 h exposure
Experimental: as §3, with “film. Films were incubated in a sealed chamber saturated with water vapor at room temperature to prevent to prevent drying of the applied fluorescent samples.” for “film.”
as §5

[26] = biological target: monomeric streptavidin variant mSA2; assay: calculated from [P]T of the mSA2 binding curve fit and film thickness; set-up: Calculated Density (density of binding sites within a cross-sectional area of the film): unit not given here
Experimental: To determine the density of binding proteins within a single plane of each thin film, the concentration of accessible binding sites throughout the entire film—taken directly from the binding assay curve fits (Table 4)—was multiplied by the corresponding film thickness. When accounting for differences in film thickness, the density of oligomerized rcSso7d.SA proteins capable of binding mSA2 is found to increase […] with degree of oligomerization (Table 5). This calculated density decreases, though, between the 1×SP25k and 2×SP25k thin films, indicating a lower density of accessible binding sites in the protein domains of the oligomerized rcSso7d.SA conjugate film. The total number of predicted binding sites within each thin film assuming complete accessibility should be proportional to the […] of rcSso7d. SA in the conjugate with PNIPAM. Reasonable estimates for relative values of the predicted number of sites can thus be obtained by normalizing the weight fraction of rcSso7d. SA in each conjugate by the corresponding weight fraction in 1×SP25k. Comparing these predicted relative number of binding sites to the calculated values (FIG. 6C), all oligomeric rcSso7d.SA conjugates are found to contain fewer proteins capable of binding mSA2 than predicted. It is likely that this effect results from a combination of steric blocking of binding sites by bound mSA2 molecules as well as a lack of the free volume required to incorporate mSA2 molecules into the protein nanodomains at high degrees of binding. Despite the lower than expected binding capacity of the conjugate thin films, these biosensors contain approximately […] the quantity of accessible binding sites compared to rcSso7d.SA monolayers on a volumetric basis (Table 4). Recognizing that each plane (and a monolayer) of rcSso7d.SA proteins is roughly 1-2 nm thick,⁸⁰ the studied thin films can be determined to contain approximately 100 more planes of protein than a monolayer.

[27] = biological target: monomeric streptavidin variant mSA2; assay: fluorescent binding assay, labeled mSA2; signal three standard deviations above blank
Experimental: (§6) The binding function of rcSso7d.SA oligomer-PNIPAM thin films was measured using fluorescently-labeled monomeric streptavidin (mSA2) and fluorescently-labeled streptavidin (SA). Details for the expression, purification, and fluorescent labeling of mSA2 are provided below. Samples were prepared by serial dilution of SA or mSA2 in PBS (pH 7.4), human urine (diluted to 50% v/v in PBS, pH 7.4), or blood serum (obtained as the supernatant by centrifuging whole blood at 1500×g for 10 minutes, then diluted to 50% v/v in PBS, pH 7.4). 0.5 μL drops of solutions containing serially diluted fluorescent mSA2 and fluorescent SA samples in PBS (pH 7.4) were gently applied to the surface of each bioconjugate thin film. Films were incubated in a sealed chamber saturated with water vapor at room temperature to prevent to prevent drying of the applied fluorescent samples. After 1 hour, films were thoroughly rinsed with water for 10 seconds (a time determined to be sufficient to remove unbound molecules from the film, see FIG. 33, dried under filtered airflow, and immediately analyzed for fluorescent signal. Fluorescence microscopy images were acquired at 4× magnification using a Cy5 filter set and exposure time of 5000 ms on an Olympus IX-81 inverted fluorescence microscope with an AxioCam HRC CCD camera. Fluorescent intensity was calculated using ImageJ software⁶⁷ by determining the average fluorescent signal in a rectangular area of the fluorescent image free of defects and occupying no less than half of the full sample application area.
Oligomerization of rcSso7d.SA also brings about a decrease in biosensor limit of detection (LOD). […] While all thin films display improvements up to threefold in LOD over the monolayer, the trend in LOD with respect to degree of oligomerization is non-monotonic. The primary factor that is expected to affect LOD in the studied biosensors is number of binding sites, as more binding sites enable a greater number of analyte molecules to be captured and shifts analyte-receptor equilibrium in favor of binding events.

[28] = biological target: monomeric streptavidin variant mSA2; assay: fluorescent binding assay, labeled mSA2 in PBS on thin film; quadratic curve fit
Experimental: as §6
Binding assays were performed by adding serially diluted solutions of fluorescently-labeled mSA2 to thin films of each studied conjugate (FIG. 6A). To maintain consistent transport properties between samples, each oligomer was conjugated to the same previously-synthesized 25 kDa PNIPAM sample. Analyte bound to thin films was quantified using fluorescence microscopy, and binding curves were fit to the collected mean fluorescent intensity (MFI) data using the following equation: […]

[29] = biological target: monomeric streptavidin variant mSA2; assay: fluorescent binding assay, labeled mSA2 on thin film
Experimental: as §6, with “Films were incubated in a sealed chamber saturated with water vapor at room temperature to prevent to prevent drying of the applied fluorescent samples.” left out, “area. […]” for “area.”

T1 sequence (P22629 37-163 limits assumed): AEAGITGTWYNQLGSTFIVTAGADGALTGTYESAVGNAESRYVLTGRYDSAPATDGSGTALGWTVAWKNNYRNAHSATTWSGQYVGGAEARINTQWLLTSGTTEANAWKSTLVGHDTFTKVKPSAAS

B1: 3xSP9.6k thin film (3x rcSso7d.SA-PNIPAM conjugate, PNIPAM Mn 9.6 kDa) (designed binder)
chain: MGSSHHHHHHSSGLVPRGSHMCATVKFTYQGEEKQVDISKIKIVARDGQYIDFKYDEGGGAYGYGWVSEKDAPKELLQMLEKQGGGGSGGGGSMATVKFTYQGEEKQVDISKIKIVARDGQYIDFKYDEGGGAYGYGWVSEKDAPKELLQMLEKQGGGGSGGGGSMATVKFTYQGEEKQVDISKIKIVARDGQYIDFKYDEGGGAYGYGWVSEKDAPKELLQMLEKQGG
modifications: maleimide end-functionalized PNIPAM (Mn 9.6 kDa) on the N-terminal Cys; film lightly crosslinked with glutaraldehyde
Streptavidin [1]
  Limit of Detection: 1300 nM
Streptavidin [2]
  LOD: 39 nM
[3]
  reduction in LOD relative to rcSso7d.SA monolayer: 10 fold
Streptavidin [4]
  [P]T (total concentration of binding sites): 0.9 nM
Streptavidin [5]
  sensitivity relative to rcSso7d.SA monolayer: ~2 fold
[6]
  [P]T (total concentration of binding sites): 9.4 nM
Streptavidin [7]
  Kd: 40 µM
Streptavidin [8]
  Limit of Detection: 1700 nM
Streptavidin [9]
  LOD relative to rcSso7d.SA monolayer: 2 fold
[10]
  Kd: 12.2 µM
[11]
  [P]T (total concentration of binding sites): 0.7 nM
Streptavidin [12]
  Kd: 30 µM
[13]
  Kd: 11 µM
Streptavidin [14]
  [P]T (total concentration of binding sites): 0.26 nM
[15]
  LOD relative to rcSso7d.SA monolayer: 2 orders of magnitude lower
[16]
  [P]T (total concentration of binding sites): 17 nM
Streptavidin [17]
  Kd: 60 µM
[18]
  Kd: 26 µM
Streptavidin [19]
  Kd: 50 µM
[20]
  Limit of Detection: 10.5 nM
Streptavidin [21]
  sensitivity relative to rcSso7d.SA monolayer: > 10 fold
Streptavidin [22]
  LOD: 87 nM
[23]
  Kd: 3.7 µM
Streptavidin [24]
  [P]T (total concentration of binding sites): 0.27 nM
[25]
  Limit of Detection: 9.8 nM

B2: 3xSP25k thin film (3x rcSso7d.SA-PNIPAM conjugate, PNIPAM Mn 24.9 kDa) (designed binder)
chain: B1 chain
modifications: maleimide end-functionalized PNIPAM (Mn 24.9 kDa) on the N-terminal Cys; film lightly crosslinked with glutaraldehyde
notes: Three rcSso7d.SA repeats joined by (G4S)2 linkers in one chain; also called conjugate of the trimer
[26]
  Calculated Density (density of binding sites within a cross-sectional area of the film): 59
  Calculated Ratio (film thickness x [P]T relative to the 1xSP25k thin film): 1.24
[27]
  limit of detection (LOD): 110 nM
[28]
  [P]T (total concentration of accessible binding sites): 3.9 µM
[29]
  fluorescent signal relative to rcSso7d.SA monolayer: > 10 fold
